6 molecules from patent publication US11994512B2, “Single-cell genomic methods to generate ex vivo cell systems that recapitulate in vivo biology with improved fidelity” (Massachusetts Institute of Technology, priority 2018, dated 2024) can be followed below.

For this experiment, the system named is intracellular proteome of ENR+CD and ENR organoids. Kind of experiment: LC-MS/MS TMT proteomics of ENR+CD versus ENR organoids. It counts as cell-based, C57BL/6 mice. As to conditions: for Average logFC: ENR+CD versus ENR organoids, sample pairs in aggregate (n=4, 2 technical replicates from two biological donors); for M1-1 Log2 Median Normalized / M1-2 Log2 Median Normalized / M2-1 Log2 Median Normalized / M2-2 Log2 Median Normalized: protein abundance ratio ENR+CD versus ENR organoids, LC-MS/MS TMT proteomics; for M1-1 Log2 Median Normalized: sample pair M1-1; for M1-2 Log2 Median Normalized: sample pair M1-2; for M2-1 Log2 Median Normalized: sample pair M2-1; for M2-2 Log2 Median Normalized: sample pair M2-2; for change: up = enriched in ENR+CD, down = enriched in ENR, FDR<0.05 and log fold change cut-off.

B1: Q6PCN3 (protein, UniProt Q6PCN3 1-1308, looked up)
chain: MQCLAAALKDETNMSGGGEQADILPANYVVKDRWKVLKKIGGGGFGEIYEAMDLLTRENVALKVESAQQPKQVLKMEVAVLKKLQGKDHVCRFIGCGRNEKFNYVVMQLQGRNLADLRRSQPRGTFTLSTTLRLGKQILESIEAIHSVGFLHRDIKPSNFAMGRLPSTYRKCYMLDFGLARQYTNTTGDVRPPRNVAGFRGTVRYASVNAHKNREMGRHDDLWSLFYMLVEFAVGQLPWRKIKDKEQVGMIKEKYEHRMLLKHMPSEFHLFLDHIASLDYFTKPDYQLIMSVFENSMKERGIAENEAFDWEKAGTDALLSTSTSTPPQQNTRQTAAMFGVVNVTPVPGDLLRENTEDVLQGEHLSDQENAPPILPGRPPEGLGPGPHLVPHPGGPEAEVWEETDVNRNKLRINIGKTPCVEEEQSRGVGVPSSPVRAPPDSPTTPVRSLCYRRVNSPESERLSTAADGRVELQERRSRMDLPGSPSRQACSSQPAQMLSVDTGHADRQASGRMDVSASVEQEALSNAFRSVPLAEEEDFDSKEWVIIDKETELKDFPPGAEPSTSGTTDEEPEELRPLPEEGEERRRLGTEPTVRPRGRGMHTLTEEDPRQMLPQPAPPQLSQADGRSETSQPPTPGSPSHSPLHSGPRPRRRESDPTGPQRQVFSVAPPFEVNGLPRAVPLALPYQDFKRDLSDYRERARLLNRVRRVGFSHMLLTAPQVPLAPFQPQANGKEGEEEEEEEEEEEEEEEEEEEEEEEEEEEEEEEEEAGALGEVLGPRSGSSSEGSERSTERSQEGAPSTLLADDQKEARGRASMADGDLEPEEGSKTLVLVSPGDMKKSPVTAELAPDPDLGTLAALTPQHERPQPTGSQLDVSEPGTLSSILKSEPKPSGPGAGGGVGLVAPGAGVTAVTSPFTKVERTFVHIAEKSHLNVMSSGGQASRPEELSTGGELGLEVLSEGGIAEEGAPAPLENGMALAGLDGTEMESCALSGPPGETPSEVVTDSLPNGPALADGPAPASQQEPVTKKGTTISPSRHAMPGSRPRSRIPVLLSEEDTGSEPSGSLSAKERWSKRARPQQDLARLVMEKRQGRLLLRLASGASSSSSEEQRRASETLSGTGSEEDTPASEPTTALPRKAVRAATTRSRIPRPISVSMPVEGQQLPGRPHGAASATDLAITSRLQLQKPSGLAPAADLRPKQSASRGPGPGRAQVSKPAAPRSPGLPASTARHPSGSPRSQSLSRKESSSPSHQARPGVPPSRGVLQVRSQPEASPVAPKKGPKGKQLQTQRAATKGRAVVSEGRPGAR
modifications: full-length
As for B1, the “Average logFC” value was determined as 1.301, the “M1-1 Log2 Median Normalized” value was determined as 0.917, the “M1-2 Log2 Median Normalized” value was 1.005 and the “M2-1 Log2 Median Normalized” value came to 1.5695. In addition, the “M2-2 Log2 Median Normalized” value is 1.711 and the change result was “up”.

B2: Q6ZQL4 (protein, UniProt Q6ZQL4 1-677, looked up)
chain: MAAGGGGSYDPLAPAGVPCAFSPDSQAYFALASSDGQLRVWETANNRLHQEYVPSAHLSGTCTCLAWAPARLQAKESHQRKKRKSEVTGTKDQADLLALGTAVGSILLYSTVRGELHSKLTSGGHENRVNCIQWHQDNDCLYSCSDDKYIVEWSTQTCKVKCKWKGDNSSVSSLCISPDGKMLLSAGRTIKLWVLETKEVYRHFTGHATPVSSLRFTTIRPNESQPSDGITGLYFLSGAVHDRLLNVWQVRSENKEKSAVMSFTVTDEPVYVDLTLSENKEEPVKLAVVCRDGQVHLFEHILNGHCKKPLTSNCTIQIATPGKGKKVTPKPIPILAASFCLDKMSLLLVYGNWFQPTIERVALNSKDTHICLERDISNCWAPTVETAITKVKTPVMNSEAKVLVPGIPGHHAPIKLPPAQPKEAENKRKLGSTEATIEERLGAMDLDRKGRKDDLQTNSFAVLLTQGLESNDFEILNKVLQTKNVNLIKRTVLRIPLRVVIPLLQELTKRLQGHPNSAALMIQWLKCVLTIHASYLSTLPDLVEQLGTLYQLMESRVKTFQKLSNLHGKLILLVTQVTASEKSKKMTSPGQKAKLVYEEESSEEESDDEVPEKDSDDNWDEDEDKDSEKDEGVDEDNEEEDEDMEDKEENEEDREVSSEKELNGDSDLDPENESEEE
modifications: full-length
For B2, the “Average logFC” value is reported as −1.143, the “M1-1 Log2 Median Normalized” value is reported as −1.562, the “M1-2 Log2 Median Normalized” value was −0.715 and the “M2-1 Log2 Median Normalized” value is recorded as −0.9435. The “M2-2 Log2 Median Normalized” value is listed as −1.351 and the change result is “down”.

B3: Q6UQ17 (protein, UniProt Q6UQ17 1-1335, looked up)
chain: MDGVHLGENLEDKDTEFTWEVKANDRTYHKQFKKKGFLCWRQKKYKSNAIHTAKYNIFSFLPLNLYEQFHRMSNLYFLFIIILQGIPEISTLPWFTLFAPLVCLFVIRATRDLVDDIGRHRSDKIINNRPCQILRGKSFLWKKWKNLCVGDVVCLSKDSIVPADLLLLASTEPSSLCYVETADIDGETNLKFRQALTVTHHELTSPKKMASFQGTVTCEEPNSRMHHFVGSLEWNSRKYPLDIGNLLLRGCKIRNTDTCYGLVIYAGLDTKIMKNCGKIHLKRTKLDLMMNKLVALIFLSLVIASLLLTVGFTFMVKQFKAKHYYMSPTHGRSDAMESFFIFWGFLILLSVMVPMAMFIIAEFIYLGNSIFINWDLNMYYEPLDMPAKARSTSLNDQLGQVQYIFSDKTGTLTQNIMTFKKCCINGCIYDSDDEHGTLRKRNPYAWNPFADGKLQFYNKELESLVQGRQDRAVQEFWRLLAICHTVMVQEKDNQLLYQAASPDEEALVTAARNFGYVFLSRTQDTITLVELGEERVYQVLAMMDFNSVRKRMSVLVRNPEGSICLYTKGADTVILERLRSKGVMEATTEEVLAAFAEQTLRTLCLAYKDVEEDAYKEWEPEHQEAALLLQNRAQALHQVYNKMEQNLQLLGATAIEDKLQDGVPETIKCLKKGNIKIWVLTGDKPETAVNIGFACQLLSENMIILEDKDINQVLERYWEDNVHQKAFKMMTHHNMALVINGEFLDQLLLSLRKEPRALVQNAVVDEVAQEPVVSALDFLQKRRISQMWRNAGPSLGTSHSADSKIRESPEVQRERAFVDLASKCQAVICCRVTPKQKALVVALVKKYQQVVTLAIGDGANDVNMIKTADIGVGLAGQEGMQAVQNSDYVLAQFCYLQRLLLVHGRWSYMRVCKFLRYFFYKTVASMMAQIWFSLVNGFSAQPLYEGWFLALFNLLYSTLPVLYIGLFEQDVTAEKSLKMPELYMAGQKGELFNYSIFMQAITHGTITSMINFFVTVMVSSDMSKAGSSHDYQSLGVLVAISSLLSVTLEVMLVVKYWTLLFVGAVVLSLSSYVLMTSLTQSLWMYRISPKTFPFLFADYNVLFEPCSLLLIVLNVALNVLPMLALRTIHRTVLKQRPKGEEEAPSEEVAVEPAMRHLRRGIPARRSSYAFSHREGYANLITQGTILRRQTHVDDSDGGTVCESLNPPEEDIPLQNKDSVFNPRKISILAKKRRHFFGKGSQEEVHPNTSSQTMEKQPTIHRDSETQKLPTTTSATSGKLLPSASEDEAFYSVASQYTLASQPKHTDVHSSFWKSPLWRDSASSSPSQLEVPRKQS
modifications: full-length
For the molecule B3, the “Average logFC” value came out at 1.464, the “M1-1 Log2 Median Normalized” value was determined as 1.126, the “M1-2 Log2 Median Normalized” value turned out to be 1.134 and the “M2-1 Log2 Median Normalized” value turned out to be 1.7555. Further, the “M2-2 Log2 Median Normalized” value is recorded as 1.841 and the change result is on record as “up”.

B4: Q6J9G1 (protein, UniProt Q6J9G1 1-429, looked up)
chain: MGEKGHLSRVLLECSLSDKLCVVREKQYEVIIVPALLVGGFLILLAIILWLFIRGQRSQRQSPGPRGTASVPASRGRSQEAAGHGEKVLLPLKETSVEGFLRAATPRLAKLQVPREQLLEVLEQIHSGSCGTLYHATMTTKDHPKPKSVVLKALEDPVGLQEVQDFIGRIQFYQYLGKHKNLVQLEGCCTERLPLYMMLEDVVPGDLLSFLWTCRRDVMTMDGLLYDLTEKQIYHIGKQILLALEFLQEKHLFHGDVAARNILIQSDLTPKLCHLGLAYEVHAHGAISSARSSTIPLKWLAPERLLLRPASIRGDIWSFGILLYEMVTLGAPPYPEVPPTSILQYLQRKKIMKRPSSCSHAMYNIMKCCWRWSEDSRPLLGQLLQRLEAASRSADDKAVLQVPELVVPELYADVAGIRAESISYSFSVL
modifications: full-length
For B4, the “Average logFC” value came out at 1.195, the “M1-1 Log2 Median Normalized” value is on record as 1.631, the “M1-2 Log2 Median Normalized” value came out at 1.194 and the “M2-1 Log2 Median Normalized” value is recorded as 0.7015. The “M2-2 Log2 Median Normalized” value came out at 1.233 and the change result is reported as “up”.

B5: Q6DI86 (protein, UniProt Q6DI86 1-829, looked up)
chain: MFRLRSISLLSWRAFPLRPFSCESLITQMQKCTNEEQVFDLIETNTATLSEQQVGCAFNVLWQFQKQKTVLEKNVDHVRNHPQFLTLCSITTNHIPAMSDATLVDVLYSIKQFAVESHHPLIEALVTEAWKRLERFDTNVLSIFSTCLADQHLYFSPLMGKIADIVNRRLETIQDLRALSVLMVSISSLISPCFQERLVIRTELLFDTVNSSKVNIARRILLFLRNVKYSHYPLLERCNQVFIRNMSHLDLESISKILNLYQFLQFHSFEFVEAARGRLAEMTLPSDHPESFVRLFAALGPVARPEIKKQLKSTILLLSEELSSQQALIVLGAMEDMESRNSHLLKKIVSVLYKHLDNYKSIELLKIIQALTFLHFQSKELFMKLRELLLSRLEASVIPSEISVLVSALSMLPHPHLSETAVSRIEAVLPQCDFRELNDLVVYLMRWIQSDLVCLASTTGKQLDLLQKLDQLGRHRLQQSTNLDLLWEELKSLKGEWLHESLVEESIAALLRFMDEIDYSNIAKVASFLSRTNYLNTLLLDRIASVAIQQVEKIHPFSVLAIILPFSILNYDPPQKDEFFGACVQCCNSYLGTLDPGTLVFLGFSLAVLEYFPEDLLKKMFNIEFLARLDSQLEILPSSLSARIQFRLMELNRAVCLECPELQVPWFHDRFCQRQFNKDTGVMNGAQQQIYKMLAEVLGGHQCVKPSALSPYYHTVGFECILDKRKKPLPYESHSIAPRKSLGMHWDSRVEPRLPPEAERIAIELLDVRAFCSNIPHLKGKSAMKKRHLEILGYRVIQIPYFEWNSMAMSTKDARMDYLREHLFGEGKS
modifications: full-length
As to B5, the “Average logFC” value came to 1.459, the “M1-1 Log2 Median Normalized” value amounted to 1.46, the “M1-2 Log2 Median Normalized” value came out at 1.066 and the “M2-1 Log2 Median Normalized” value is recorded as 1.4225. In addition, the “M2-2 Log2 Median Normalized” value worked out at 2.251 and the change result is recorded as “up”.

B6: Q64669 (protein, UniProt Q64669 1-274, looked up)
chain: MAARRALIVLAHSEKTSFNYAMKEAAVEALKKRGWEVLESDLYAMNFNPIISRNDITGELKDSKNFQYPSESSLAYKEGRLSPDIVAEHKKLEAADLVIFQFPLQWFGVPAILKGWFERVLVAGFAYTYAAMYDNGPFQNKKTLLSITTGGSGSMYSLQGVHGDMNVILWPIQSGILRFCGFQVLEPQLVYSIGHTPPDARMQILEGWKKRLETVWEETPLYFAPSSLFDLNFQAGFLMKKEVQEEQKKNKFGLSVGHHLGKSIPADNQIKARK
modifications: full-length
For the molecule B6, the “Average logFC” value was −1.573, the “M1-1 Log2 Median Normalized” value was −1.603, the “M1-2 Log2 Median Normalized” value is given as −2.001 and the “M2-1 Log2 Median Normalized” value is given as −1.5715. Moreover, the “M2-2 Log2 Median Normalized” value is reported as −0.844 and the change result is reported as “down”.
